Changes are numbered by the printed parent chain. Names may count otherwise. Blank lines part the entries; values can stand above or below the binder they belong to.
Columns and labels:
[1] = biological target: T1, Mouse BSSL, recombinant (mouse, UniProt Q64285 21-599); assay: SPR steady state, hIgG4 S228P captured by anti-Fab
T1 construct: Bought (R&D Systems, Cat. no 5658-CE); also called mBSSL; murine BSSL
T1 sequence: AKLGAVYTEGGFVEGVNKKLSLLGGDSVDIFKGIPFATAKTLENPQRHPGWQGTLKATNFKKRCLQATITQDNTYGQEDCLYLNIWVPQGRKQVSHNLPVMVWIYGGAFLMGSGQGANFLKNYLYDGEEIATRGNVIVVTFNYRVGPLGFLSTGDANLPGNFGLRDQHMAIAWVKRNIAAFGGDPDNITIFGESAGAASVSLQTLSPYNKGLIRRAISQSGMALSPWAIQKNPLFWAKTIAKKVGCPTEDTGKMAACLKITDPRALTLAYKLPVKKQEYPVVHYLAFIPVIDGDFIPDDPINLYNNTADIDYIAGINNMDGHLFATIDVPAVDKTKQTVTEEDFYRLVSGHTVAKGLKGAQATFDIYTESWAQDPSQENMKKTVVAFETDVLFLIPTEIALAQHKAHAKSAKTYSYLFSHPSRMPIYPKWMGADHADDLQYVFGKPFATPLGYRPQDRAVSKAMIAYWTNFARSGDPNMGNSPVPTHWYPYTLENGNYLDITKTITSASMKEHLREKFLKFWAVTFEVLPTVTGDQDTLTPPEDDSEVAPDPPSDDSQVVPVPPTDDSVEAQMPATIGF
Method: (§1) Kinetic parameters of the hIgG4 S228P clones were determined by SPR using BIACORE® T200 (GE Healthcare). Single cycle kinetics was used to measure the affinity of the purified hIgG4 molecules to human and mouse BSSL. An anti-Fab antibody (GE Healthcare, #28958325) was immobilized on a CM5 S sensor chip by primary amine coupling using NHS-EDC chemistry. hIgG4 was captured by the anti-Fab antibody, and subsequently, five different concentrations of hBSSL (1:5 dilutions starting from 50 nM) or mBSSL (1:5 dilutions starting from 500 nM) were injected over the surface. The sensor chip surface was regenerated with 10 mM glycine-HCl pH 2.1. For binding to human BSSL, single cycle kinetic data was fitted to a 1:1 binding model and kinetic parameters were retrieved using software BlAevaluation. For mouse BSSL, a steady state analysis was performed by plotting the response level at equilibrium against each concentration, and KD values were retrieved by the BlAevalution software.

[2] = biological target: T2, Human BSSL (bile salt-stimulated lipase), native (human, UniProt P19835 21-753); assay: SPR single cycle kinetics, hIgG4 S228P captured by anti-Fab
T2 construct: Native full-length protein purified from human milk (Astra Hässle AB); also called hBSSL; non-biotinylated human BSSL
T2 sequence: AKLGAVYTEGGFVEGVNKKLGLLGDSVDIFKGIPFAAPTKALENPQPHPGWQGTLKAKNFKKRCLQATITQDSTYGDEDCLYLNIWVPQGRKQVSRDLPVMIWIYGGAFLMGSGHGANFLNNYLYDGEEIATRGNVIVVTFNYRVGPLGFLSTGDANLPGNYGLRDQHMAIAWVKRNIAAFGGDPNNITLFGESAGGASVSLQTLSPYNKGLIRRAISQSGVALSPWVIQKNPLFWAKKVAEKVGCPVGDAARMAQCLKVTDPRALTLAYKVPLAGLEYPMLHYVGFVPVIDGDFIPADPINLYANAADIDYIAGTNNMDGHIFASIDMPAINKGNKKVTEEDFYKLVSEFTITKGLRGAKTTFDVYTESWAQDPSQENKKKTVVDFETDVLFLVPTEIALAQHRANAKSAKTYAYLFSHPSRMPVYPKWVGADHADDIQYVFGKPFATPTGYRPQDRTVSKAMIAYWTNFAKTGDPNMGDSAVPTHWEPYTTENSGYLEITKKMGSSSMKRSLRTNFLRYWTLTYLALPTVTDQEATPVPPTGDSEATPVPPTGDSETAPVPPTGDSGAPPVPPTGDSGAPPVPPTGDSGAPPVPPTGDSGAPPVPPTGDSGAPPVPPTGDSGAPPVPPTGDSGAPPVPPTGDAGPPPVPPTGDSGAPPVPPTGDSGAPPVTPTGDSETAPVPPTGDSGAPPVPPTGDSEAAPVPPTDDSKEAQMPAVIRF
Method: as §1

[3] = biological target: T3, Biotinylated human BSSL (human, UniProt P19835 21-753, Biotinylated on glycosacarides, 30-40 biotin/BSSL); assay: flow cytometry displacement assay; 1.5 ug antibody, 1 ug b-hBSSL
T3 construct: hBSSL biotinylated in house; also called b-hBSSL; human BSSL-biotin
T3 sequence: T2 sequence
Method: (§2) The 28 BSSL-specific hIgG4 antibodies and the five reference antibodies at different concentrations (ranging from 0.5 μg to 3.0 μg per reaction; see Table 10) were added to b-hBSSL (1 μg per reaction, see Table 2) in round-bottom polystyrene tubes, lx PBS (pH 7.4) was added to a final volume of 20 μl and the antibody/b-hBSSL mixtures were incubated for 30 min. at +4° C. to facilitate binding of antibodies to BSSL. Buffy coat (50 μl) was then added to each antibody/b-hBSSL mixture and incubation continued for another 30 min at +4° C. Thereafter, 2 ml of FACS lysing solution (BD Biosciences) was added and the cells were incubated for 10 min at room temperature in order to lyse erythrocytes and fix the white blood cells. The cells were then centrifuged for 5 min. at 200×g, the resulting pellets were washed by adding 2 ml of FACS buffer (1×PBS supplemented with 1% FCS and 0.1% NaN3) and centrifuged again. Finally, the supernatants were discarded and the cells were resuspended in the last drop of liquid, approximately 50 μl.
(§3) 5 μl of BV421-labelled anti-human CD14 (BD Biosciences) and 5 μl of BB515-labelled streptavidin (BD Biosciences) was added to each tube and incubated for 30 min, at +4° C., protected from light. Thereafter, cells were washed twice with FACS buffer, resuspended in 500 μl FACS buffer, and run on BD LSRII flow cytometer (BD Biosciences). Finally, data were analyzed using FlowJo software (BD Biosciences).

[4] = biological target: T3, Biotinylated human BSSL; assay: flow cytometry displacement assay; 3.0 ug antibody, 1 ug b-hBSSL
Method: as §2, §3

B1: S-SL048-10 hIgG4 S228P (antibody, V domains shown)
VH: QVQLVQSGAEVKKPGASVKVSCKASGYTFTSYNMHWVRQAPGQGLEWIGVINPSDGYTSYAQKFQGRVTMTRDTSTSTVYMELSSLRSEDTAVYYCARDYYGSSPLGYWGQGTLVTVSS
VL: DIQMTQSPSSLSASVGDRVTITCRASPSISYLNWYQQKPGKAPKLLIYATSRLPSGVPSRFSGSGSGTDFTLTISSLQPEDFATYYCQQRSSSPTFGQGTKLEIK
notes: Tested as human IgG4 S228P
Kd [1]: 57 nM
Kd [2]: 2.2 nM
percentage reduction of b-hBSSL binding to CD14+ monocytes [3]: 34%
percentage reduction of b-hBSSL binding to CD14+ monocytes [4]: 42%

B2: S-SL048-17 hIgG4 S228P (antibody, V domains shown)
VH: B1 VH with I48M, S54G, A61T, Q65K
VL: B1 VL with P27Q, T50A, R52K
notes: Tested as human IgG4 S228P
Kd [1]: 68 nM
Kd [2]: 4.3 nM
percentage reduction of b-hBSSL binding to CD14+ monocytes [3]: 16%
percentage reduction of b-hBSSL binding to CD14+ monocytes [4]: 36%

B3: S-SL048-81 hIgG4 S228P (antibody, V domains shown)
VH: B1 VH with S54G, Y57A
VL: B1 VL with P27S, L32M, N33H, T50A, R52S, P54Q, Q88H
notes: Tested as human IgG4 S228P
Kd [1]: 60 nM
Kd [2]: 4.4 nM
percentage reduction of b-hBSSL binding to CD14+ monocytes [3]: 31%
percentage reduction of b-hBSSL binding to CD14+ monocytes [4]: 62%

B4: S-SL048-107 hIgG4 S228P (antibody, V domains shown)
VH: B1 VH with I48M, S54G, Y57A, A61N
VL: B1 VL with R52S
notes: Tested as human IgG4 S228P
Kd [1]: 98 nM
Kd [2]: 1.2 nM
percentage reduction of b-hBSSL binding to CD14+ monocytes [3]: 37%
percentage reduction of b-hBSSL binding to CD14+ monocytes [4]: 49%

B5: S-SL048-47 hIgG4 S228P (antibody, V domains shown)
VH: B1 VH with S54G, D55G, A61T
VL: B1 VL with R24S, L32M, P54Q, S93T
notes: Tested as human IgG4 S228P
Kd [2]: 8.5 nM

B7: S-SL048-89 hIgG4 S228P (antibody, V domains shown)
VH: B1 VH with I48M, D55S, Y57S, A61T
VL: B1 VL with S93N
notes: Tested as human IgG4 S228P
Kd [2]: 6 nM

B8: S-SL048-134 hIgG4 S228P (antibody, V domains shown)
VH: B1 VH with I48M, Y57A, Q65K
VL: B1 VL with R52K, S93Y
notes: Tested as human IgG4 S228P
Kd [2]: 1.8 nM

B10: S-SL048-13 hIgG4 S228P (antibody, V domains shown)
VH: B1 VH with Y57A, A61T
VL: B1 VL with R24S, R52S, P54A
notes: Tested as human IgG4 S228P
Kd [1]: 57 nM
Kd [2]: 0.9 nM

B12: S-SL048-104 hIgG4 S228P (antibody, V domains shown)
VH: B1 VH with I48M, S54G, Y57A, A61D, Q65K
VL: B1 VL with R24S, P27S, N33H, T50A, P54A, Q88H, S93T
notes: Tested as human IgG4 S228P
Kd [1]: 111 nM
Kd [2]: 3.3 nM
percentage reduction of b-hBSSL binding to CD14+ monocytes [3]: 2%
percentage reduction of b-hBSSL binding to CD14+ monocytes [4]: 44%

B13: S-SL048-108 hIgG4 S228P (antibody, V domains shown)
VH: B1 VH with Y57A, Q65K
VL: B1 VL with R24S, R52S, P54A
notes: Tested as human IgG4 S228P
Kd [1]: 149 nM
Kd [2]: 1.3 nM
percentage reduction of b-hBSSL binding to CD14+ monocytes [3]: 41%
percentage reduction of b-hBSSL binding to CD14+ monocytes [4]: 48%

B14: S-SL048-115 hIgG4 S228P (antibody, V domains shown)
VH: B1 VH with I48M, Y57A, Q65K
VL: B1 VL with P27Q, L32M, N33H, T50A, R52K, Q88H
notes: Tested as human IgG4 S228P
Kd [1]: 186 nM
Kd [2]: 6 nM

B15: S-SL048-105 hIgG4 S228P (antibody, V domains shown)
VH: B1 VH with I48M, Y57A
VL: B1 VL with R24S, P27Q, N33H, T50A, R52K, Q88H, S93Y
notes: Tested as human IgG4 S228P
Kd [1]: 237 nM
Kd [2]: 6 nM

B17: S-SL048-79 hIgG4 S228P (antibody, V domains shown)
VH: B1 VH with I48M, Y57A
VL: B1 VL with R24S, P27Q, T50A, Q88H, S93Y
notes: Tested as human IgG4 S228P
Kd [1]: 48 nM
Kd [2]: 5 nM
percentage reduction of b-hBSSL binding to CD14+ monocytes [3]: 20%
percentage reduction of b-hBSSL binding to CD14+ monocytes [4]: 52%

B19: S-SL048-86 hIgG4 S228P (antibody, V domains shown)
VH: B1 VH with I48M, S54G, Y57A
VL: B1 VL with P27Q, N33H, R52S, P54Q, Q88H, S93Y
notes: Tested as human IgG4 S228P
Kd [1]: 167 nM
Kd [2]: 6.8 nM

B20: S-SL048-75 hIgG4 S228P (antibody, V domains shown)
VH: B1 VH with I48M, N52Y, S54G, D55G, Q65K
VL: B1 VL with P27Q, R52N, P54Q, Q88H
notes: Tested as human IgG4 S228P
Kd [1]: 164 nM

Continued, values first:

Kd [1]: 168 nM
Kd [2]: 5.9 nM
B6: S-SL048-110 hIgG4 S228P (antibody, V domains shown)
VH: B1 VH with I48M, S54G, Y57A, A61N, Q65K
VL: B1 VL with R24S, P27Q, N33H, T50A, P54A, Q88H, S93T
notes: Tested as human IgG4 S228P

Kd [1]: 137 nM
Kd [2]: 1.2 nM
percentage reduction of b-hBSSL binding to CD14+ monocytes [3]: 37%
percentage reduction of b-hBSSL binding to CD14+ monocytes [4]: 55%
B9: S-SL048-43 hIgG4 S228P (antibody, V domains shown)
VH: B1 VH with I48M, S54G, Y57A, A61T
VL: B1 VL with L32M, T50A, R52S
notes: Tested as human IgG4 S228P

Kd [1]: 82 nM
Kd [2]: 9.6 nM
B11: S-SL048-45 hIgG4 S228P (antibody, V domains shown)
VH: B1 VH with I48M, Y57A, A61T
VL: B1 VL with P27Q, N33H, T50A, P54A, Q88H, S93T
notes: Tested as human IgG4 S228P

Kd [1]: 68 nM
Kd [2]: 2.3 nM
percentage reduction of b-hBSSL binding to CD14+ monocytes [3]: 58%
percentage reduction of b-hBSSL binding to CD14+ monocytes [4]: 61%
B16: S-SL048-18 hIgG4 S228P (antibody, V domains shown)
VH: B1 VH with I48M, Y57A, A61T, Q65K
VL: B1 VL with P27S, P54Q, Q88H, S93T
notes: Tested as human IgG4 S228P

Kd [1]: 57 nM
Kd [2]: 6.4 nM
B18: S-SL048-12 hIgG4 S228P (antibody, V domains shown)
VH: B1 VH with I48M, Y57A, A61T
VL: B1 VL with R24S, P27S, L32M, N33H, T50A, P54A, Q88H, S93T, P94S
notes: Tested as human IgG4 S228P

Kd [2]: 5 nM
percentage reduction of b-hBSSL binding to CD14+ monocytes [3]: 28%
percentage reduction of b-hBSSL binding to CD14+ monocytes [4]: 54%
B21: S-SL048-112 hIgG4 S228P (antibody, V domains shown)
VH: B1 VH with V50I, N52Y, S54G, Y57A, A61N, Q65K
VL: B1 VL with P27S, L32M, N33H, P54A, Q88H, S93T
notes: Tested as human IgG4 S228P
